Here are results for 1 substance from publication PMC5741731.

Test [1] addresses human mesothelin-Fc fusion protein (human).
Test [2] has the same target. Description: SPR; Biacore T200; human mesothelin-Fc captured via amine-coupled anti-human IgG (Fc) antibody on a CM5 chip; CA-125-His-Avi and anti-mesothelin Fab injected consecutively and conversely (dual injects, 120 s contact each); PBS with 0.05% Tween 20, dilution with 1 mg/ml BSA; 25 °C. For orientation: Surface plasmon resonance follows binding to a sensor surface in real time, without labels.

Sequence of human mesothelin-Fc fusion protein (human) (Q13421 other isoform, or with tags, fused parts or gaps): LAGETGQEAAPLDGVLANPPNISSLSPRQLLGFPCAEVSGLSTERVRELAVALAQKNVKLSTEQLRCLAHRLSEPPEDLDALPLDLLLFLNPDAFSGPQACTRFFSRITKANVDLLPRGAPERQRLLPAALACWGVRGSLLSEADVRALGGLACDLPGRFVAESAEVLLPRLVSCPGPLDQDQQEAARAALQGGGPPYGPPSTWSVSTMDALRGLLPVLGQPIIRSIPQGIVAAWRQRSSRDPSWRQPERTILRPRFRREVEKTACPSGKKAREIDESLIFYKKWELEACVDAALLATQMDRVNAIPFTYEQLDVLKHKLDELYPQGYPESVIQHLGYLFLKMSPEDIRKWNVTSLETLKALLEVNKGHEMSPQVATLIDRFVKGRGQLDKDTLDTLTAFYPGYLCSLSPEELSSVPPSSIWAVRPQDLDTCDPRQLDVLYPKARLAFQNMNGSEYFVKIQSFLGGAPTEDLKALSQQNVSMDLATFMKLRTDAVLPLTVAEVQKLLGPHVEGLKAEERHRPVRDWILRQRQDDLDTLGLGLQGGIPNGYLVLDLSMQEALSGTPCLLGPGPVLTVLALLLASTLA

“CA-125-HisAvi (recombinant CA-125, extracellular portion) (domain or fragment)” gave a the same heterotypic cell adhesion after pre-incubation of the NCI-H358-MSLN clones with RG7787 Fab: no NCI-H358 cells recovered for clones 4D8, 4H3 and 1G2; clone 2C5 only partly blocked in test [1] of 10%. This substance also returned an occupancy of mesothelin at maximal saturation in test [2] of 70%.
